Target: wild-type full-length human ADAMTS13 (human) (UniProt Q76LX8)

percent enhancement by antibody 17G2 of catalytic efficiency (kcat/Km) of VWF96 proteolysis; intramolecular Spacer-CUB interaction within full-length ADAMTS13: 188%
B1: wild-type full-length human ADAMTS13 (enzyme)
chain: AAGGILHLELLVAVGPDVFQAHQEDTERYVLTNLNIGAELLRDPSLGAQFRVHLVKMVILTEPEGAPNITANLTSSLLSVCGWSQTINPEDDTDPGHADLVLYITRFDLELPDGNRQVRGVTQLGGACSPTWSCLITEDTGFDLGVTIAHEIGHSFGLEHDGAPGSGCGPSGHVMASDGAAPRAGLAWSPCSRRQLLSLLSAGRARCVWDPPRPQPGSAGHPPDAQPGLYYSANEQCRVAFGPKAVACTFAREHLDMCQALSCHTDPLDQSSCSRLLVPLLDGTECGVEKWCSKGRCRSLVELTPIAAVHGRWSSWGPRSPCSRSCGGGVVTRRRQCNNPRPAFGGRACVGADLQAEMCNTQACEKTQLEFMSQQCARTDGQPLRSSPGGASFYHWGAAVPHSQGDALCRHMCRAIGESFIMKRGDSFLDGTRCMPSGPREDGTLSLCVSGSCRTFGCDGRMDSQQVWDRCQVCGGDNSTCSPRKGSFTAGRAREYVTFLTVTPNLTSVYIANHRPLFTHLAVRIGGRYVVAGKMSISPNTTYPSLLEDGRVEYRVALTEDRLPRLEEIRIWGPLQEDADIQVYRRYGEEYGNLTRPDITFTYFQPKPRQAWVWAAVRGPCSVSCGAGLRWVNYSCLDQARKELVETVQCQGSQQPPAWPEACVLEPCPPYWAVGDFGPCSASCGGGLRERPVRCVEAQGSLLKTLPPARCRAGAQQPAVALETCNPQPCPARWEVSEPSSCTSAGGAGLALENETCVPGADGLEAPVTEGPGSVDEKLPAPEPCVGMSCPPGWGHLDATSAGEKAPSPWGSIRTGAQAAHVWTPAAGSCSVSCGRGLMELRFLCMDSALRVPVQEELCGLASKPGSRREVCQAVPCPARWQYKLAACSVSCGRGVVRRILYCARAHGEDDGEEILLDTQCQGLPRPEPQEACSLEPCPPRWKVMSLGPCSASCGLGTARRSVACVQLDQGQDVEVDEAACAALVRPEASVPCLIADCTYRWHVGTWMECSVSCGDGIQRRRDTCLGPQAQAPVPADFCQHLPKPVTVRGCWAGPCVGQGTPSLVPHEEAAAPGRTTATPAGASLEWSQARGLLFSPAPQPRRLLPGPQENSVQSSACGRQHLEPTGTIDMRGPGQADCAVAIGRPLGEVVTLRVLESSLNCSAGDMLLLWGRLTWRKMCRKLLDMTFSSKTNTLVVRQRCGRPGGGVLLRYGSQLAPETFYRECDMQLFGPWGEIVSPSLSPATSNAGGCRLFINVAPHARIAIHALATNMGAGTEGANASYILIRDTHSLRTTAFHGQQVLYWESESSQAEMEFSEGFLKAQASLRGQYWTLQSWVPEMQDPQSWKGKEGT

From publication PMC8051872
